T1: pro-heparanase (H60) (Homo sapiens, UniProt Q9Y251, K307R)
T1 sequence (Q9Y251 36-543 K307R): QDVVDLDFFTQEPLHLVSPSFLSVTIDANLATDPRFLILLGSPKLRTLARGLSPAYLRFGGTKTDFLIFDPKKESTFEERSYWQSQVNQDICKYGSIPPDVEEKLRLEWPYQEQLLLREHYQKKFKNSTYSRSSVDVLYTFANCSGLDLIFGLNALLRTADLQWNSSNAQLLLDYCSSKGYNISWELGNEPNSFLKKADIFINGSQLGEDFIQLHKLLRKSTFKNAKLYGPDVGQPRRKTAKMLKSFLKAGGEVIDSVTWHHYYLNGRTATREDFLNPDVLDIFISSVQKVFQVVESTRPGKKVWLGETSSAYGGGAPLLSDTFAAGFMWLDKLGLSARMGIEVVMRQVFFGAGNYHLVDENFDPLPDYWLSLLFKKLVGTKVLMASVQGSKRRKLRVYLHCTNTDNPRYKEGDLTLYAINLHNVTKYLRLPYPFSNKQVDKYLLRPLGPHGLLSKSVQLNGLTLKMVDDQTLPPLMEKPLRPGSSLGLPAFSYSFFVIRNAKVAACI


Molecular target: T1, pro-heparanase (H60)
Test: Circular dichroism spectrometry of pro-heparanase
Set-up: key to a helix / β strand / β turn / Un-ordered: fraction of secondary structure (0-1)
Conditions: fraction of secondary structure of H60
Method: Circular Dichroism spectrometry—Circular Dichroism spectra were recorded using a JASCO 500 spetropolarimeter. Far Ultraviolet measurements (260-200 nm) were performed in a 0.1 mm demountable cuvette at 25° C., scanning at a rate of 10 nm/min. Pro-heparanase was assayed at a concentration of 0.72 mg/ml in 20 mM sodium phosphate buffer pH 6.8 supplemented with 300 mM NaCl. Effect of heparin on pro-heparanase spectra was determined at a concentration of 100 μM, and the inhibitor was added at a concentration of 15 μM. Base-line recordings were performed in the presence and absence of heparin to correct the pro-heparanase spectra.

Un-ordered	a helix	β strand	β turn	Molecule
0.33	0.29	0.26	0.12	H60 − heparin: purified 60 kDa pro-heparanase without heparin (protein) QDVVDLDFFTQEPLHLVSPSFLSVTIDANLATDPRFLILLGSPKLRTLARGLSPAYLRFGGTKTDFLIFDPKKESTFEERSYWQSQVNQDICKYGSIPPDVEEKLRLEWPYQEQLLLREHYQKKFKNSTYSRSSVDVLYTFANCSGLDLIFGLNALLRTADLQWNSSNAQLLLDYCSSKGYNISWELGNEPNSFLKKADIFINGSQLGEDFIQLHKLLRKSTFKNAKLYGPDVGQPRRKTAKMLKSFLKAGGEVIDSVTWHHYYLNGRTATREDFLNPDVLDIFISSVQKVFQVVESTRPGKKVWLGETSSAYGGGAPLLSDTFAAGFMWLDKLGLSARMGIEVVMRQVFFGAGNYHLVDENFDPLPDYWLSLLFKKLVGTKVLMASVQGSKRRKLRVYLHCTNTDNPRYKEGDLTLYAINLHNVTKYLRLPYPFSNKQVDKYLLRPLGPHGLLSKSVQLNGLTLKMVDDQTLPPLMEKPLRPGSSLGLPAFSYSFFVIRNAKVAACI
0.3	0.44	0.26	0	H60 + heparin: 60 kDa pro-heparanase in the presence of heparin (protein, UniProt Q9Y251 36-543, looked up, pro-form with heparin, 60 kDa pro-heparanase in the presence of heparin) pro-form: QDVVDLDFFTQEPLHLVSPSFLSVTIDANLATDPRFLILLGSPKLRTLARGLSPAYLRFGGTKTDFLIFDPKKESTFEERSYWQSQVNQDICKYGSIPPDVEEKLRLEWPYQEQLLLREHYQKKFKNSTYSRSSVDVLYTFANCSGLDLIFGLNALLRTADLQWNSSNAQLLLDYCSSKGYNISWELGNEPNSFLKKADIFINGSQLGEDFIQLHKLLRKSTFKNAKLYGPDVGQPRRKTAKMLKSFLKAGGEVIDSVTWHHYYLNGRTATKEDFLNPDVLDIFISSVQKVFQVVESTRPGKKVWLGETSSAYGGGAPLLSDTFAAGFMWLDKLGLSARMGIEVVMRQVFFGAGNYHLVDENFDPLPDYWLSLLFKKLVGTKVLMASVQGSKRRKLRVYLHCTNTDNPRYKEGDLTLYAINLHNVTKYLRLPYPFSNKQVDKYLLRPLGPHGLLSKSVQLNGLTLKMVDDQTLPPLMEKPLRPGSSLGLPAFSYSFFVIRNAKVAACI
